Measured values taken from paper PMC6251626.

Target: αβ-tubulin heterodimer purified from porcine brains (porcine) (UniProt P02550)
Assay: ITC; DRP or DRPΔN (135-250 μM) injected into αβ-tubulin (20-40 μM); 25°C, 50 mM HEPES pH 7.3, 100 mM KCl, 1 mM MgCl2, 50 μM GDP

Q: With “DRPΔN (DARPin D1 without its N-terminal ankyrin repeat) (designed binder)” as the substance, how does the Kd read?
A: Its Kd is 461 nM.
